From patent US20050202010A1, “Method of treatment and bioassay involving macrophage migration inhibitory factor (MIF) as cardiac-derived myocardial depressant factor” (priority 2003, published 2005)
Values joined by “and” are separate entries in the source; they are usually repeats but may differ in a detail not shown here. Equal entries are not always repeated.

Columns and labels:
[1] = test system: C57BL/6 hearts; test: Langendorff, rhMIF added to perfusate, C57BL/6 hearts; design: species or system mouse; LVP / TPP / RT90 / Max + d / Max − d: unit not given beside the values
[2] = test system: spontaneously beating normal mouse hearts (endotoxin resistant C3H/HeJ); test: Langendorff preparation, hearts perfused with rMIF (C3H/HeJ); details: 20 ng/ml rMIF, 1.5 ml/m
Method: (§1) Determination of cardiac function in response to rMIF. C57BL/6J and C3H/HeJ mice were used in the Langendorff assays. Briefly, 200 U heparin sulfate was given i.p., the mice sacrificed 20 m later, and the heart immediately removed and placed on ice in Krebs-Hanseleit Buffer ([…], 118 mM NaCl, 4.7 mM KCL, 1.2 mM KH2PO4, 1.2 mM MgSO4, 2.5 mM CaCl2, 11.1 mM glucose, pH 7.4, which was prepared fresh with demineralized, deionized water and bubbled with 95% O2 and 5% CO2 (PO2 590 mmHg, pCO2 38 mmHg)). The aorta was cannulated with PE50 tubing, the heart perfused in a retrograde manner through the aortic root with prefiltered, oxygenated Krebs-Hanseleit Buffer at a constant flow rate of 1.5 ml/m (T 37° C.) and a recirculating volume of 100 ml. The heart was placed in a water-jacketed chamber to maintain constant temperature and humidity. PE60 intratnedic polyethylene tubing was connected to a Statham pressure transducer inserted into the left ventricle (LV) to measure LV pressure. Temperature was monitored using a 27 G thertnistor needle inserted into the LV muscle. […] Following stabilization, LV pressure and its first derivative (dP/dt), heart rate, and coronary perfusion were measured simultaneously with a multichannel Grass 7D polygraph (Grass Instruments, Quincy, M A). Cardiac function for all hearts was determined by plotting peak systolic LV pressure and ±dP/dt,Ia, values against changes in coronary flow rate.
(§2) MIF induces systolic and diastolic cardiac dysfunction. […] Responses to MIF were determined in hearts from both C57BL/6J mice, and C3H/HeJ mice. C3H/HeJ mice are resistant to endotoxin (41-43), therefore controlling for the possibility that any depression observed might be due to trace endotoxin in the perfusate. Table 2 illustrates the responses of both mouse strains to retrograde aortic perfusion at 1.5 ml/m with control perfusate or perfusate containing 20 ng/ml recombinant MIF. Perfusion with MIF led to a significant decrease in LVP, +dP/dtmax, and −dP/dt max in both mouse strains. FIG. 4 illustrates the effect of MIF over a range of coronary flow rates. […]

[3] = test system: isolated wild type hearts; test: Langendorff perfusion with rMIF, wild type hearts; design: species or system mouse; details: WT + rMIF 20 ng/ml
Method: (§3) Ex vivo cardiac function determination by Langendorff Mouse heart function was determined using the Langendorff assay procedure. Briefly, 200 Units heparin sulfate were injected intraperitoneally and the mice were sacrificed 20 minutes later. The heart was immediately removed and placed on ice in Krebs-Henseleit Buffer ([…], 118 mM NaCl, 4.7 mM KCL, 1.2 mM KH2PO4, 1.2 mM MgSO4, 2.5 mM CaCl2, 11.1 mM glucose, pH 7.4, which was prepared fresh with demineralized, deionized water and bubbled with 95% O2 and 5% CO2(pO2 590 mmHg, pCO2 38 mmHg)). The aorta was cannulated with PE50 tubing, the heart perfused in a retrograde manner through the aortic root with pre-filtered, oxygenated Krebs-Henseleit Buffer at a constant flow rate of 1.5 ml/minute (constant temperature of 37° C., 100 ml recirculating volume). The heart was placed in a water-jacketed chamber to maintain constant temperature and humidity. Intramedic polyethylene tubing (PE60), connected to a Statham pressure transducer, was inserted into the left ventricle (LV) to measure LV pressure. Temperature was monitored using a 27 gauge thermistor needle inserted into the LV muscle. […] Following stabilization, LV pressure and its first derivative (dP/dt), heart rate, and coronary perfusion were measured simultaneously with a multi-channel Grass 7D polygraph (Grass Instruments, Quincy, Mass.). Ventricular performance as a function of coronary perfusion was determined for all hearts by plotting peak systolic LV pressure and ±dP/dtmax values against incremental increases in coronary flow rate.
(§4) MIF has direct cardiodepressant effects in TNFR−/− mice to the same extent as in WT mice.

[4] = test system: spontaneously beating normal mouse hearts (C57BL/6J); test: Langendorff preparation, hearts perfused with rMIF (C57BL/6J); details: C57BL/6J hearts, 20 ng/ml rMIF, 1.5 ml/m
Method: as §1, §2

[5] = test system: isolated TNFR−/− hearts; test: Langendorff perfusion with rMIF, TNFR−/− hearts; design: species or system mouse
Method: as §3, §4

[6] = C57BL/6 + rhMIF in perfusate, n = 3
[7] = C57BL/6 + rhMIF, single hearts by date and mean (x), n 3
[8] = C57BL/6 + rhMIF, single hearts by date and mean (x), n 3, mean

B1: rMIF: recombinant human macrophage migration inhibitory factor added to the heart perfusate at 20 ng/ml (protein, UniProt P14174 2-115, looked up)
Macrophage migration …: PMFIVNTNVPRASVPDGFLSELTQQLAQATGKPPQYIAVHVVPDQLMAFGGSSEPCALCSLHSIGKIGGAQNRSYSKLLCGLLAERLRISPDRVYINYYDMNAANVGWNNSTFA
With B1 the “Coronay Perfusion Pressue” value [1, 6] was 86.0 ± 23 mmHg, the “Coronay Vascular Resistance” value [1, 6] was 57.3 ± 7.7 mmHg and the “Heart Rate” value [1, 6] was 318 ± 2 bpm. The “Left Ventricular Pressure” value [1, 6] was 52.7 ± 6.6 mmHg, the “Time to 90% Relaxation” value [1, 6] was 73.3 ± 4.4 ms and the “Time to Max +dP/dt” value [1, 6] was 47.0 ± 2.1 ms. For the same molecule, the “Time to Max −dP/dt” value [1, 6] was 49.0 ± 1.5 ms, the “Time to Peak Pressue” value [1, 6] was 74.0 ± 3.1 ms and the dP40 [1, 6] was 1200 ± 115 mmHg/sec. For the same molecule, the “−dP/dt max” value [1, 6] was 1233 ± 159 mmHg/sec, the “+dP/dt” value [1, 7] was 1650 and 1100 and the DR [1, 7] was 1.1 and 1.158 and 1.2. The HR [1, 7] was 320 and 315, the LVP [1, 7] was 62 and 40 and 56 and the “Max + d” value [1, 7] was 48 and 50 and 43. The “Max − d” value [1, 7] was 52 and 48 and 47, the RT90 [1, 7] was 80 and 75 and 65 and the TPP [1, 7] was 72 and 80 and 70. For the same molecule, the dP40 [1, 7] was 1400 and 1000 and 1200, the “−dP/dt” value [1, 7] was 950 and 1250 and the DR [1, 8] was 1.153. For the same molecule, the HR [1, 8] was 318.3333, the LVP [1, 8] was 52.67 and the “Max + d” value [1, 8] was 47. For the same molecule, the “Max − d” value [1, 8] was 49, the RT90 [1, 8] was 73.33 and the TPP [1, 8] was 74. For the same molecule, the “−dP/dt” value [1, 8] was 1233.333, the “+dP/dt max” value ([2]; n = 7) was 1800 ± 106 mm Hg/see and the “−dP/dt max” value ([2]; n = 7) was 1343 ± 138 mm Hg/sec. For the same molecule, the LVP ([2]; n = 7, mean peak) was 75.2 ± 5.5 mm Hg, the “+dP/dt max” value ([3]; n = 5) was 1400 ± 158 mmHg/sec and the CPP ([3]; n = 5) was 84.8 ± 8.6 mmHg. For the same molecule, the CVR ([3]; n = 5) was 56.5 ± 5.7 mmHg, the DR ([3]; n = 5) was 1.32 ± 0.06 and the HR ([3]; n = 5) was 338 ± 10 bpm. For the same molecule, the RT90 ([3]; n = 5) was 75.2 ± 2.9 ms, the TPP ([3]; n = 5) was 71.6 ± 1.6 ms and the “Time to Max +dP/dt” value ([3]; n = 5) was 49.2 ± 0.5 ms. The “Time to Max −dP/dt” value ([3]; n = 5) was 52.4 ± 1.7 ms, the dP40 ([3]; n = 5) was 1240 ± 174 mmHg/sec and the “−dP/dt max” value ([3]; n = 5) was 1070 ± 146 mmHg/sec. The LVP ([3]; n = 5, mean ± SE) was 55.6 ± 5.9 mmHg, the “+dP/dt max” value ([4]; n = 10) was 1920 ± 89 mm Hg/see and the “−dP/dt max” value ([4]; n = 10) was 1545 ± 122 mm Hg/sec. For the same molecule, the LVP ([4]; n = 10, mean peak) was 77.9 ± 5.1 mm Hg, the CPP ([5]; TNF KO + rMIF 20 ng/ml, n = 4) was 91.5 ± 6.6 mmHg and the CVR ([5]; TNF KO + rMIF 20 ng/ml, n = 4) was 61.0 ± 4.4 mmHg. For the same molecule, the DR ([5]; TNF KO + rMIF 20 ng/ml, n = 4) was 1.30 ± 0.10, the HR ([5]; TNF KO + rMIF 20 ng/ml, n = 4) was 335 ± 20 bpm and the RT90 ([5]; TNF KO + rMIF 20 ng/ml, n = 4) was 71.3 ± 4.2 ms. For the same molecule, the TPP ([5]; TNF KO + rMIF 20 ng/ml, n = 4) was 67.0 ± 2.4 ms, the “Time to Max +dP/dt” value ([5]; TNF KO + rMIF 20 ng/ml, n = 4) was 47.0 ± 2.4 ms and the “Time to Max −dP/dt” value ([5]; TNF KO + rMIF 20 ng/ml, n = 4) was 47.0 ± 2.4 ms. For the same molecule, the dP40 ([5]; TNF KO + rMIF 20 ng/ml, n = 4) was 1613 ± 105 mmHg/sec, the “−dP/dt max” value ([5]; TNF KO + rMIF 20 ng/ml, n = 4) was 1413 ± 151 mmHg/sec and the LVP ([5]; TNF KO + rMIF 20 ng/ml, n = 4, mean ± SE) was 66.0 ± 4.7 mmHg. For the same molecule, the “+dP/dt max” value ([5]; TNFR−/− + rMIF 20 ng/ml, n = 4) was 1800 ± 100 mmHg/sec and the “onset of cardiac dysfunction (systolic and diastolic)” value ([5]; isolated hearts (Langendorf prep), both TNFR−/− and wild type mice) was at most 20 min.
